Experimental findings from publication PMC5349851, “Combinatorial bZIP dimers display complex DNA-binding specificity landscapes” are described below.

Series [1] addresses ATF3;CEBPA (human;human, UniProt P18847;P49715 ;, |). The experiment in a line: EMSA-FRET; heterodimer; EMSA-FRET: 50 nM each labeled protein, 10 nM DNA, 50 mM potassium phosphate pH 7.4, 150 mM KCl, 0.1% BSA, 0.1% Tween-20, 5 ng/ul poly(dI-dC), 0.5 mM TCEP; 37 C. The note with it: protein: recombinant;recombinant; fluorescein or TAMRA; chain copies: 2;2; label: 5' TYE 665; blunt. Background: Mobility shift assays separate free from complexed probe on a gel.

For series [2], the target named is BATF3;CEBPA (human;human, UniProt Q9NR55;P49715 ;, |). The description is as above. Conditions: protein: recombinant;recombinant; fluorescein or TAMRA; chain copies: 2;2; label: 5' TYE 665; blunt.
BATF3;CEBPA, sequence (P49715 273-345, one chain of several): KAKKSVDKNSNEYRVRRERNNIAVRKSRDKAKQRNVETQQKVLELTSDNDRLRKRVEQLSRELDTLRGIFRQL
The target of series [3] is T1, CEBPG (human, UniProt P53567).
T1 sequence: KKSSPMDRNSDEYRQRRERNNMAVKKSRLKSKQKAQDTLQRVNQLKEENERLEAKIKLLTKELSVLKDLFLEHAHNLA
The experiment in a line: EMSA-FRET; homodimer; EMSA-FRET: 50 nM each labeled protein, 10 nM DNA, 50 mM potassium phosphate pH 7.4, 150 mM KCl, 0.1% BSA, 0.1% Tween-20, 5 ng/ul poly(dI-dC), 0.5 mM TCEP; 37 C. The note with it: protein: recombinant; fluorescein or TAMRA; chain copies: 2; label: 5' TYE 665; blunt.

For series [4], the target named is T2, ATF3;CEBPG (human;human, UniProt P18847;P53567 ;, |).
T2 sequence 1: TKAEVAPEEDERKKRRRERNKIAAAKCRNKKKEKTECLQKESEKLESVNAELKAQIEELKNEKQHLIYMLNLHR
T2 sequence 2: T1 sequence
The series can be described thus: EMSA-FRET; heterodimer; EMSA-FRET: 50 nM each labeled protein, 10 nM DNA, 50 mM potassium phosphate pH 7.4, 150 mM KCl, 0.1% BSA, 0.1% Tween-20, 5 ng/ul poly(dI-dC), 0.5 mM TCEP; 37 C. The note with it: protein: recombinant;recombinant; fluorescein or TAMRA; chain copies: 2;2; label: 5' TYE 665; blunt.

In series [5] the target is T3, XBP1 (human, UniProt P17861).
T3 sequence: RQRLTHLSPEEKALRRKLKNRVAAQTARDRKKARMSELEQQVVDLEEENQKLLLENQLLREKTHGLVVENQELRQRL
The series can be described thus: EMSA-FRET; homodimer; comparable to CRE-L; EMSA-FRET: 50 nM each labeled protein, 10 nM DNA, 50 mM potassium phosphate pH 7.4, 150 mM KCl, 0.1% BSA, 0.1% Tween-20, 5 ng/ul poly(dI-dC), 0.5 mM TCEP; 37 C. Conditions: protein: recombinant; fluorescein or TAMRA; chain copies: 2; label: 5' TYE 665; blunt.

For series [6], the target named is T4, BATF3;JUN (human;human, UniProt Q9NR55;P05412 ;, |). The experiment in a line: EMSA-FRET; heterodimer; comparable to CRE-L; EMSA-FRET: 50 nM each labeled protein, 10 nM DNA, 50 mM potassium phosphate pH 7.4, 150 mM KCl, 0.1% BSA, 0.1% Tween-20, 5 ng/ul poly(dI-dC), 0.5 mM TCEP; 37 C. The note with it: protein: recombinant;recombinant; fluorescein or TAMRA; chain copies: 2;2; label: 5' TYE 665; blunt.
T4 sequence (P05412 243-316, one chain of several): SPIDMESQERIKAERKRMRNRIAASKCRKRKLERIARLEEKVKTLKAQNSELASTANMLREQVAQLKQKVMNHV

Series [7] deals with T5, ATF2;BATF3 (human;human, UniProt P15336;Q9NR55 ;, |).
T5 sequence 1: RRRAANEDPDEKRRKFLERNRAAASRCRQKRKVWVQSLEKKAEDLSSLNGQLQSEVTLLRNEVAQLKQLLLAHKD
T5 sequence 2: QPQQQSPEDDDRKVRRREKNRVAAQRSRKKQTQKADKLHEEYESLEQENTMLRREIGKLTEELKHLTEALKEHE
Described as above. The note with it: protein: recombinant;recombinant; fluorescein or TAMRA; copies: 1;1; label: 5' TYE 665; blunt.

The target of series [8] is T6, JUN (human, UniProt P05412). The experiment in a line: EMSA-FRET; homodimer; EMSA-FRET: 50 nM each labeled protein, 10 nM DNA, 50 mM potassium phosphate pH 7.4, 150 mM KCl, 0.1% BSA, 0.1% Tween-20, 5 ng/ul poly(dI-dC), 0.5 mM TCEP; 37 C. The note with it: protein: recombinant; fluorescein or TAMRA; chain copies: 2; label: 5' TYE 665; blunt.
T6 sequence (P05412 243-316): as the sequence (P05412 243-316, one chain of several) above
The target in series [9] is T7, BATF3 (human, UniProt Q9NR55).
T7 sequence: T5 sequence 2
Described as above. Conditions: protein: recombinant; fluorescein or TAMRA; chain copies: 2; label: 5' TYE 665; blunt.

In series [10] the target is T8, ATF3 (human, UniProt P18847).
T8 sequence: T2 sequence 1
The series is described as above. The note with it: protein: recombinant; fluorescein or TAMRA; chain copies: 2; label: 5' TYE 665; blunt.

The target in series [11] is T6, JUN. The experiment in a line: EMSA-FRET; homodimer; no detectable affinity; EMSA-FRET: 50 nM each labeled protein, 10 nM DNA, 50 mM potassium phosphate pH 7.4, 150 mM KCl, 0.1% BSA, 0.1% Tween-20, 5 ng/ul poly(dI-dC), 0.5 mM TCEP; 37 C. The note with it: protein: recombinant; fluorescein or TAMRA; chain copies: 2; label: 5' TYE 665; blunt.
Series [12] concerns the target T5, ATF2;BATF3. The series can be described thus: EMSA-FRET; heterodimer; comparable to CRE; EMSA-FRET: 50 nM each labeled protein, 10 nM DNA, 50 mM potassium phosphate pH 7.4, 150 mM KCl, 0.1% BSA, 0.1% Tween-20, 5 ng/ul poly(dI-dC), 0.5 mM TCEP; 37 C. The note with it: protein: recombinant;recombinant; fluorescein or TAMRA; copies: 1;1; label: 5' TYE 665; blunt.
In series [13] the target is T4, BATF3;JUN. The series can be described thus: EMSA-FRET; heterodimer; EMSA-FRET: 50 nM each labeled protein, 10 nM DNA, 50 mM potassium phosphate pH 7.4, 150 mM KCl, 0.1% BSA, 0.1% Tween-20, 5 ng/ul poly(dI-dC), 0.5 mM TCEP; 37 C. Conditions: protein: recombinant;recombinant; fluorescein or TAMRA; chain copies: 2;2; label: 5' TYE 665; blunt.
Series [14] has as its target T3, XBP1. The series can be described thus: EMSA-FRET; homodimer; comparable to CRE; EMSA-FRET: 50 nM each labeled protein, 10 nM DNA, 50 mM potassium phosphate pH 7.4, 150 mM KCl, 0.1% BSA, 0.1% Tween-20, 5 ng/ul poly(dI-dC), 0.5 mM TCEP; 37 C. Conditions: protein: recombinant; fluorescein or TAMRA; chain copies: 2; label: 5' TYE 665; blunt.

ATF3;CEBPA, sequence (P49715 273-345, one chain of several): as the sequence (P49715 273-345, one chain of several) above

B1: AP1/CAAT (TRE-CAAT) (dsDNA)
DNA 1: GAGTCCATGAGCAATCCGTAG
DNA 2: CTACGGATTGCTCATGGACTC
Take B1: in [1], the binding result is reported as “binds”.

B2: CREA/CAAT (CRE-L-CAAT) (dsDNA)
DNA 1: GAGTCCGCCACGCAATCCGTAG
DNA 2: CTACGGATTGCGTGGCGGACTC
Take B2: in series [2], the binding result was “binds”.

B3: CAAT (dsDNA)
DNA 1: GAGTCCATTGCGCAATCCGTAG
DNA 2: CTACGGATTGCGCAATGGACTC
As to B3, in series [3], the binding result is recorded as “binds”.

B4: CRE/CAAT (dsDNA)
DNA 1: GAGTCCATGACGCAATCCGTAG
DNA 2: CTACGGATTGCGTCATGGACTC
Turning to B4, in [4], the binding result is recorded as “binds”.

B5: CRE (dsDNA)
DNA 1: GAGTCCATGACGTCATCCGTAG
DNA 2: CTACGGATGACGTCATGGACTC
Take B5: the binding result in series [5], in series [6], in [7], in series [8], in [9] and in [10] was “binds” each time.

B6: CRE-L (dsDNA)
DNA 1: GAGTCCATGACGTGGCCCGTAG
DNA 2: CTACGGGCCACGTCATGGACTC
Take B6: the binding result in series [11] was “no binding”; in series [9], “no binding”; in [12] it was “binds”; in series [13], “binds”; in series [14], “binds”.
